Bounds are passed on as bounds.

Assay [1] deals with lysozyme, fluorescence-labeled with Alexa Fluor 488. In words: grade of lysozyme carrying rate in the summary table (C: less than 25%).
For assay [2] the target is unchanged. Kind of assay: fluorescent lysozyme retained in the sponge after 3 h in 10x diluted PBS; supernatant fluorescence, plate reader.
For assay [3] the target is unchanged. In words: grade of lysozyme carrying rate in the summary table (A: equal to or higher than 50%).
For assay [4] the target is unchanged. Kind of assay: grade of lysozyme carrying rate in the summary table (B: 25% or higher and less than 50%).

Consider “member for a preparation "G": thermally crosslinked CBE3 only, molar ratio of CBE3 to succinylated CBE3 = 1 to 0”, for which the lysozyme carrying rate in assay [1] was under 25%. The same substance yielded a lysozyme carrying rate (actual measurement value) in assay [2] of 8%. “member for a preparation "B": thermally crosslinked substance of CBE3 and succinylated CBE3, molar ratio of CBE3 to succinylated CBE3 = 1 to 1” gave a lysozyme carrying rate (actual measurement value) in assay [2] of 66%. For the substance “member for a preparation "A": thermally crosslinked substance of CBE3 and succinylated CBE3, molar ratio of CBE3 to succinylated CBE3 = 1 to 3”, the lysozyme carrying rate (actual measurement value) in assay [2] stood at 71%. Further, the lysozyme carrying rate in assay [3] is over 50%. Regarding “member for a preparation "C": thermally crosslinked substance of CBE3 and succinylated CBE3, molar ratio of CBE3 to succinylated CBE3 = 3 to 1”, the lysozyme carrying rate (actual measurement value) in assay [2] turned out to be 38%. Besides, in assay [4], the lysozyme carrying rate is 25 to 50%.
